Assay results from paper PMC3694950.

Molecular target: mitochondrial large-conductance Ca2+-regulated potassium channel (mitoBKCa channel) (human (endogenous in U-87 MG)) (UniProt Q12791)
UniProt Q12791, sequence (Q12791 whole entry, looked up): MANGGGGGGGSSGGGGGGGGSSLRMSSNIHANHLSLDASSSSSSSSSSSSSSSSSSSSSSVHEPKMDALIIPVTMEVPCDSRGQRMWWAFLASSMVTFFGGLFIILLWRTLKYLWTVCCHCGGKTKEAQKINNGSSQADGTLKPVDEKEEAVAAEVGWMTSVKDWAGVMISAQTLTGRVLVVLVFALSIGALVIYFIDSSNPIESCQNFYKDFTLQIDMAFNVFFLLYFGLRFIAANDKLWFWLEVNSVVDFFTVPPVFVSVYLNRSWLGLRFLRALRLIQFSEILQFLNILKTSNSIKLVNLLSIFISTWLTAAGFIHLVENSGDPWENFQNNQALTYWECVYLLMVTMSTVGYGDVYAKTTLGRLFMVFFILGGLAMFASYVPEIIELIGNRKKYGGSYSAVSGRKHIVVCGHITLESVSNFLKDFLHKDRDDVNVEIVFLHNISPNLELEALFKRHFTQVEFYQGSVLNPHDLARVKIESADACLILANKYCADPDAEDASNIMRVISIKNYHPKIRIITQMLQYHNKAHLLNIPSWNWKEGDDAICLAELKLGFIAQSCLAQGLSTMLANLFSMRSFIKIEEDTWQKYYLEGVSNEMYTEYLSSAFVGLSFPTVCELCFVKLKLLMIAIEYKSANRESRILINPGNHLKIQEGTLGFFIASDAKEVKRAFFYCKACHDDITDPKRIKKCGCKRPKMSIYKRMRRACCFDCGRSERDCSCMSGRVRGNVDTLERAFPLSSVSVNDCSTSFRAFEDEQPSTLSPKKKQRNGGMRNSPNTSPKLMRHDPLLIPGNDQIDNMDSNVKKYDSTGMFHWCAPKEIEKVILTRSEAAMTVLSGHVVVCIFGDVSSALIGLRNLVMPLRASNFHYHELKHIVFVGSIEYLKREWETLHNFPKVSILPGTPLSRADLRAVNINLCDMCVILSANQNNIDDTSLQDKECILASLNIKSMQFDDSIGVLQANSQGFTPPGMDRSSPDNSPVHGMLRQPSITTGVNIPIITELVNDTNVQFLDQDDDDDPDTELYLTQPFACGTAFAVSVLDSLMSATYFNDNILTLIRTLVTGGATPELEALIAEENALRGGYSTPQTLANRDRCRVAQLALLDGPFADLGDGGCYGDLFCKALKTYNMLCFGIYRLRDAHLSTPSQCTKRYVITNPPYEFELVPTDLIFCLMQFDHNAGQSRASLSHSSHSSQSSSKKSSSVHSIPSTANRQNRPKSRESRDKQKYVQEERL

In the case of “iberiotoxin (from UniProt P24663 1-37) (peptide)”, the open probability (Po) of the mitoBKCa channel in patch-clamped mitoplasts (inside-out) after 100 nM iberiotoxin; control Po 0.95 is reported as 0.15 Po.
